Common to all, as to assay: IEDB peptide-MHC binding, purified MHC/competitive/radioactivity; filed as Kd, often an IC50 or EC50 that approximates it; ≥ and ≤ were set here for values at or beyond the usual limits of such assays
The target of test [1] is HLA-B*07:02.
In test [2] the target is HLA-B*15:01.
For test [3], the target named is HLA-A*23:01.
Test [4] deals with HLA-A*24:02.
Test [5] deals with HLA-B*08:01. As to conditions: source organism: Vaccinia virus WR.
Test [6] deals with HLA-A*01:01.
Test [7] has as its target HLA-A*26:01.
Test [8] has as its target HLA-A*29:02.
Test [9] addresses HLA-A*30:01.
The target of test [10] is HLA-A*30:02.
In test [11] the target is HLA-A*32:01.
Test [12] concerns the target HLA-B*51:01. As to conditions: source organism: Dengue virus 4 Philippines/H241/1956.
The target in test [13] is HLA-B*53:01. As to conditions: source organism: Dengue virus 2 Jamaica/1409/1983.
[14] abbreviates: source organism: Dengue virus 4 Philippines/H241/1956.
Setting [15] is: source organism: Vaccinia virus WR.
[16] abbreviates: source organism: Dengue virus 1 Brazil/97-11/1997.
Where [17] appears, read: source organism: Mammarenavirus guanaritoense.
The mark [18] stands for this setting: source organism: SARS coronavirus Tor2.
[19] abbreviates: source organism: Dengue virus 2 Jamaica/1409/1983.
Setting [20] is: source organism: Mammarenavirus lassaense.
Setting [21] is: source organism: Mammarenavirus choriomeningitidis.

pKd: −log10 of the molar value. Bounds are passed on as bounds.

As for SPAAAQKAT, the negative logarithm of the Kd (pKd) in test [1] (setting [14]) was 7.84.

For KNNNEFAFF, in [2] (setting [15]), the negative-log Kd (pKd) was 5.88.

As for NPNMTDKTPV, the pKd in test [1] (setting [14]) is 6.93.

Take AMVLSIVSLF: the values for the pKd in [3] (setting [16]), in [4] (setting [16]) and in test [2] (setting [16]) were 7.82, 6.24 and 8.33, respectively.

For the sequence FIAKHFLEL, the negative logarithm of the Kd (pKd) was 8.89 in test [5] and 5.19 in test [2] (setting [15]).

With LLFVCISYY, in test [2] (setting [15]), the pKd is no more than 4.11.

For the sequence RPVKEKEENL, the negative logarithm of the Kd (pKd) in test [1] (setting [16]) was 6.12.

For the sequence PTMEIEDQEY, the pKd was 7.76 in test [6] (setting [17]); 5.94 in test [7] (setting [17]); 4.95 in [8] (setting [17]); no more than 4.15 in test [9] (setting [17]); 5.05 in test [10] (setting [17]); no more than 4.30 in test [11] (setting [17]).

Consider SLCKLNNVF, for which the figures for the pKd in test [11] (setting [15]) and in [2] (setting [15]) were 6.03 and 7.80, respectively.

On to FFVYENAFL, for which the pKd in test [6] (setting [18]) is no more than 4.11; in test [3] (setting [18]), 5.17; in test [4] (setting [18]), 5.04; in test [7] (setting [18]) it was no more than 4.49; in test [8] (setting [18]), no more than 3.97; in test [10] (setting [18]), no more than 4.01.

On to LVSLLGSAL, for which the pKd in test [1] (setting [14]) is 7.35.

For the sequence SPIINRKGKV, the pKd in test [1] (setting [14]) was 6.61; in [12] it was no more than 4.16.

Regarding FTIMAAILAY, the pKd in [6] (setting [19]) was 6.01; in [7] (setting [19]), 7.26; in [10] (setting [19]), 5.66; in [2] (setting [19]), 8.66; in test [13] it was 5.46.

Regarding LVSTQEFRY, the pKd is 7.51 in [6] (setting [18]); 4.96 in test [3] (setting [18]); 4.90 in [4] (setting [18]); 5.75 in [7] (setting [18]); 8.16 in test [8] (setting [18]); 8.23 in test [10] (setting [18]).

Take SSSPTILDNY: the pKd in test [6] (setting [17]) was 7.65; in test [7] (setting [17]) it was 4.75; in [8] (setting [17]), 7.00; in test [9] (setting [17]), no more than 4.68; in [10] (setting [17]), 7.37; in [11] (setting [17]), no more than 4.16.

As to SPNPTIEAGR, the pKd in [1] (setting [19]) is 5.85.

Turning to AFIDTIKSL, the pKd in test [6] (setting [18]) is no more than 4.11; in test [3] (setting [18]), 5.30; in test [4] (setting [18]), 4.99; in test [7] (setting [18]), no more than 4.47; in test [8] (setting [18]) it was 5.53; in test [10] (setting [18]), 4.87.

As to RYWYLNHTV, the pKd in test [6] (setting [20]) was no more than 4.55; in test [3] (setting [20]), 7.82; in [4] (setting [20]), 7.11; in test [7] (setting [20]), no more than 4.11; in test [8] (setting [20]), no more than 4.41; in test [10] (setting [20]) it was 9.22.

As to DTSNTGRAEL, the pKd was no more than 4.30 in test [6] (setting [21]); 4.80 in test [7] (setting [21]); no more than 4.15 in test [8] (setting [21]); no more than 4.61 in test [9] (setting [21]); 5.14 in test [10] (setting [21]); no more than 4.16 in test [11] (setting [21]).

Take GINKRSTPF: the negative logarithm of the Kd (pKd) in [2] (source organism: Vaccinia virus Copenhagen) was 9.14.

With MYASALVLL, the pKd in [6] (setting [18]) was no more than 4.18; in test [3] (setting [18]), no more than 4.33; in [4] (setting [18]), no more than 4.19; in test [7] (setting [18]) it was 5.34; in [8] (setting [18]), no more than 4.65; in [10] (setting [18]) it was no more than 4.47.

KAFKKFPSG: the values for the pKd in [9] (setting [15]) and in test [2] (setting [15]) were 6.61 and 5.52, respectively.

For QLNQLSKSEF, the pKd in [2] (setting [16]) is 7.14.

With MATFKMRPM, the pKd in test [1] (setting [16]) was 6.80.

For the sequence NYLRKRVMF, the pKd in test [6] (setting [18]) was no more than 4.11; in test [3] (setting [18]), 4.95; in [4] (setting [18]), 4.74; in test [7] (setting [18]), no more than 4.22; in test [8] (setting [18]) it was 5.49; in [10] (setting [18]), 5.04.

As usually defined, the pKd is −log10 of the Kd, conventionally taken in molar units.
